The target of test [1] is T1, SARS-CoV-2 spike RBD (WT) (Severe acute respiratory syndrome …, UniProt P0DTC2). Briefly: ELISA. Also noted: unit not given here. For orientation: ELISA stands for enzyme-linked immunosorbent assay.
Test [2] has as its target T1, SARS-CoV-2 spike RBD (WT). In words: BLI. For orientation: Biolayer interferometry detects binding as a change in optical thickness at a sensor tip.

Bounds are passed on as bounds.

Usually Kd stands for the constant that tells how readily two partners part at equilibrium.

B1: C2721 (antibody, V domains shown)
VH: EVQLVESGGGLIQPGGSLRLSCAASGFTVSSNYMSWVRQAPGKGLEWVSVIYSGGSTYYADSVKGRFTISRDNSKNTLYLQMNSLRAEDTAVYYCARDMGGDAFDIWGQGTMVTVSS
VL: DIQLTQSPSFLSASVGDRVTITCRASQGISSYLAWYQQKPGKAPKLLIYAASTLQSGVPSRFSGSGSGTEFTLTISSLQPEDFATYYCQQLNSYPFFGGGTKVEIK
In test [1], B1 gave a binding score of 174. In test [2], the Kd was 98.5 nM.

B2: D066 (antibody, V domains shown)
VH: QVQLVQSGAEVKKPGASVKVSCKASEYTFTNYYMHWVRQAPGQGLEWMGIINPSAGSTSYAQKFQGRVRMTSDTSTNTVYMELSSLRSEDTAVYYCARGVLVPAAEYYFDYWGQGTLVTVSS
VL: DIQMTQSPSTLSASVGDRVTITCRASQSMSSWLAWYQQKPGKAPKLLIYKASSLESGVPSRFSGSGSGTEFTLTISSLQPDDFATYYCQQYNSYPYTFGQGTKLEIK
The molecule B2 had a binding score in test [1] of 11.9. For the same molecule, in test [2], the Kd came to 7.6 nM.

B3: D067 (antibody, V domains shown)
VH: EVQLVESGGGLVQPGGSLRLSCAASGFIFSGYDMHWVRQAPGKGLEWVSAIGTAGDTYYPGSVKGRFILSRENAKNSLYLQMNSLRAGDTAVYYCARALYRFGELLGYDYWGQGTLVTVSS
VL: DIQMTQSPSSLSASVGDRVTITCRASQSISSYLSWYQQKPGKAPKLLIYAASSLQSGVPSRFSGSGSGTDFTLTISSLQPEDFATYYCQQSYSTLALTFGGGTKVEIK
Molecule B3 displayed a binding score in test [1] of 352. The Kd in test [2] is 183 nM.

B4: C2708 (antibody, V domains shown)
VH: EVQLVESGGVVVQPGGSLRLSCAASGFTFDDYAMHWVRQAPGKGLEWVSLISWDGGSTYYADSVKGRFTISRDNSKNSLYLQMNSLRAEDTALYYCAKDIEGGSGWSFDYWGQGTLVTVSS
VL: QSALTQPPSVSGSPGQSVTISCTGTSSDVGSYNRVSWYQQPPGTAPKLMIYEVSNRPSGVPDRFSGSKSGNTASLTISGLQAEDEADYYCSSYTSSSTVVFGGGTKLTVL
B4 gave a binding score in test [1] of 7040. This molecule gave a dissociation constant Kd in test [2] of 597 nM.

B5: D101 (antibody, V domains shown)
VH: EVQLVESGGGLVQPGGSLRLSCAASGFTFSNYDMHWVRQATGKGLEWVSTIGTVGDTYYPGSVKGRFTISRENAKNSLYLQMNSLRAGDTAVYYCARGGGMTTVTLDVWGQGTTVTVSS
VL: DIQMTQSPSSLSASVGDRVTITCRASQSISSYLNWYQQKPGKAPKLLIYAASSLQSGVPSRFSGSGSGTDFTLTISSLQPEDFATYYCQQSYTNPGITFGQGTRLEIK
B5 returned a binding score in test [1] of 8.93. The Kd in test [2] stood at 46.9 nM.

B6: D006 (antibody, V domains shown)
VH: EVQLVQSGAEVKKPGESLKISCKGSGYSFTSYWIGWVRQMPGKGLEWMGIIYPGDSDTRYSPSFQGQVTISADKSISTAYLQWSSLKASDTAMYYCASFGRNDAFDIWGQGTMVTVSS
VL: not shown
B6 showed a binding score in test [1] of 41.6. For the same molecule, the dissociation constant Kd in test [2] was 8.76 nM.

B7: C2748 (antibody, V domains shown)
VH: QVQLVQSGAEVKKPGSSVKVSCKASGGTFTNYAISWVRQAPGQGLEWMGGIIPIFGTEDYAQRFQGRVTITADESTSTAYMELTSLTSEDTAVYFCARGLPLTVTTRRRFNFFDYWGQGTLVTVSS
VL: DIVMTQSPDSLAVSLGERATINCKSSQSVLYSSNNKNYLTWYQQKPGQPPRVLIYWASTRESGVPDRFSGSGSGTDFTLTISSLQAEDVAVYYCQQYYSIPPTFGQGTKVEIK
The molecule B7 returned a binding score in test [1] of 11.7. In test [2], this molecule gave a Kd of 2.4 nM.

B8: D159 (antibody, V domains shown)
VH: QVQLVESGGGVVQPGGSLRLSCAASGFTFSTYGMHWVRQAPGKGLEWVAFIQYDGSNKYYADSVKGRFTISRDNSKNTLCLQMNTLRAEDTAVYYCAKDLYYYGSGSYFDYWGQGTLVTVSS
VL: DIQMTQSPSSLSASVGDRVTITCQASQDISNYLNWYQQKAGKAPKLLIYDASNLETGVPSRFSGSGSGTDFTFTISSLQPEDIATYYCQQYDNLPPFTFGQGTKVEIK
B8: the binding score in test [1] came to 59.9. The molecule also showed a Kd in test [2] of 16.9 nM.

B9: C2704 (antibody, V domains shown)
VH: EVQLVESGGDLVQPGGSLRLSCAASGFTFSTSWMHWVRQAPGKGLVWVSHINGDGSTTIYADSVKGRFTISRDNAKNTLYLQMNTLRAEDTAVYYCARNTGTHFDYWGQGTLVTVSS
VL: QSALTQPASVSGSPGQSITISCTGTSSDVGRYNYVSWYQQHPGKAPKVMIYDVSNRPSGVSNRFSGSKSGNTASLTISGLQAEDEADYYCSSYTSSSPWVFGGGTKLTVL
Consider B9, for which, in test [1], the binding score was 410. In test [2], the dissociation constant Kd came to 205 nM.

B10: C2736 (antibody, V domains shown)
VH: QVQLVQSGAEVKKPGSSVKVSCKASGGTFSSYAISWVRQAPGQGLEWMGGIIPIFGTANYAQKFQGRVTITADESTSTAYMELSSLRSEDTAVYYCASCRYYYDSSGYAQPEDYFDYWGQGTLVTVSS
VL: QSVLTQPPSVSGAPGQRVTISCTGSSSNIGAGYDVHWYQQLPGTAPKLLIYGNSNRPSGVPDRFSGSKSGTSASLAITGLQAEDEADYYCQSYDSSLSGSHVVFGGGTKLTVL
For B10, the binding score in test [1] worked out at 79.9. This molecule had a Kd in test [2] of 6.14 nM.

B11: C2690 (antibody, V domains shown)
VH: EVQLVESGGGVVQPGRSLRVSCAASGFTFSSYGMHWVRQAPGKGLEWVAVISYDGSNKYYADSVKGRFSISRDNSKNTLYLQMNSLRAEDTAVYYCAKVISSFGGGSLNYFDYWGQGTLVTVSS
VL: AIRMTQSPSSLSASVGDRVTITCQASQDISNYLNWYQQKPGKAPKLLIYDASNLETGVPSRFSGSGSGTDFTFTISSLQPEDIATYYCQQYDNLPITFGQGTRLEIK
In test [1], B11 showed a binding score of 381. Moreover, binding in test [2] was put at a Kd of 103 nM.

B12: D049 (antibody, V domains shown)
VH: EVQLVQSGAEVKKPGESLKISCKGSGYSFISHWIGWVRQMPGKGLEWMGIIYPGDSDTRNSPSFQGQVTISADKSISTAYLQWSSLKASDTAMYYCARLLGSNYEVGFDYWGQGTLVTVSS
VL: not shown
Turning to B12, the binding score in test [1] was determined as 6.28. The Kd in test [2] came to 9.69 nM.

B13: D124 (antibody, V domains shown)
VH: QVQLQQWGAGLLKPSETLSLTCAVYGGPFTGYSWTWIRQSPGKGLEWIGEINHSGSTSYNPSLQSRVTFSIDTSKNQFSLELSSVTAADTAVYFCARGNRNRYHTSDWYYYGMDVWGQGTTVTVSS
VL: DIQMTQSPSSLSAYVGDRVTITCRASQGINTYLAWYQQKPGKVPRLLIYGASTLQSGVPSRFSGSGSGTEFTLTISSLQPEDIATYYCQKYNSAPRTFGQGTKVEIK
The molecule B13 showed a binding score in test [1] of 2540. This molecule also returned an equilibrium dissociation constant (Kd) in test [2] of 219 nM.

B14: D070 (antibody, V domains shown)
VH: EVQLVESGGGLVQPGGSLRLSCAASGFTFSSYEMNWVRQAPGKGLEWVSYISSSGSTIYYADSVKGRFTISRDNAKNSLYLQMNSLRAEDTAVYYCARVPRGYYDSSGYYYVGYYFDYWGQGTLVTVSS
VL: DIQLTQSPSFLSASVGDRVTITCRASQGISSYLAWYQQKPGKAPKLLIYAASTLQSGVPSRFSGSGSGTEFTLTISSLQPEDFATYYCQQLNSYTFTFGPGTKVDIK
B14 showed a binding score in test [1] of 716. In test [2], this molecule showed a Kd of 115 nM.

B15: C2728 (antibody, V domains shown)
VH: QVQLVESGGGVVQPGRSLRLSCAASGFTFSSYGMHWVRQAPGKGLEWVAVIWYDGSNKYYADSVKGRFTISRDNSKNTLYLQMNSLRAEDTAVYYCARERPHPSITMIVPNNYGMDVWGQGTTVTVSS
VL: not shown
With B15, the binding score in test [1] was found to be 132. In addition, binding in test [2] was put at a Kd of 536 nM.

B16: D144 (antibody, V domains shown)
VH: EVQLVESGGGLVQPGGSLRLSCAASGFTFSSYWMHWVRQAPGKGLVWVSRINSDGSSTSYADSVKGRFTISRDNAKNTLYLQMNSLRAEDTAVYYCARVPDTAMVTGINYYYYYGMDVWGQGTTVTVSS
VL: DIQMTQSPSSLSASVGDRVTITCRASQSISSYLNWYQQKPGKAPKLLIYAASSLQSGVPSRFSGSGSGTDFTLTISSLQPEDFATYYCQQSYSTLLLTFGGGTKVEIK
On to B16, for which the binding score in test [1] amounted to 24.8. In test [2], this molecule returned a Kd of 19.2 nM.

B17: D002 (antibody, V domains shown)
VH: EVQLVQSGAEVKKPGESLKISCKASGYNFTTSWIGWVRQMPGKGLEWMGIIYPGDFDTTYSPSFQGQVTISADKSISTAYLQWSSLKASDTAMYYCARVGPTAGTDGYNYLDWYFDLWGRGTLVTVSS
VL: SYELTQPPSVSVSPGQTARITCSGDALPKQFSYWYQQKPGQAPVLVIYKDNERPSGIPERFSGSSSGTTVTLTISGVQAEDEADYYCQSADSISWVFGGGTKLTVL
As for B17, in test [1], the binding score was 3640. In test [2], this molecule had an equilibrium dissociation constant (Kd) of 465 nM.

B18: D146 (antibody, V domains shown)
VH: QVQLVESGGGVVQPGRSLRLSCAASGFTFSSYGMHWVRQAPGKGLEWVAVISYDGSNKYYADSVKGRFTISRDNSKNTLYLQMNSLRAEDTAVYYCAKSLGSYCSSTSCYGGSFDYWGQGTLVTVSS
VL: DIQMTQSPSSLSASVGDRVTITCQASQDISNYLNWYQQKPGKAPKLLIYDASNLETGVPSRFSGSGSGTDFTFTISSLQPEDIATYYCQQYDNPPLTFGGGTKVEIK
In test [1], B18 displayed a binding score of 574. In test [2], this molecule registered a Kd of 98.1 nM.

B19: D025 (antibody, V domains shown)
VH: QVQLVESGGGVVQPGRSLRLSCAASGFTFSSYGMHWVRQAPGKGLEWVAVISYDGSNKYYADSVKGRFTISRDNSKNTLYLQMNSLRAEDTAVYYCAKRGQGYCGGDCFSGYFDYWGQGTLVTVSS
VL: not shown
Regarding B19, the binding score in test [1] is more than 10000. This molecule showed a Kd in test [2] of 172 nM.

B20: D164 (antibody, V domains shown)
VH: QVQLVQSGAEVKKPGASVKVSCKASGYTFTSYYMHWVRQAPGQGLEWMGIINPSGGSTSYAQKFQGRVTMTRDTSTSTVYMELSSLRSEDTAVYYCARGGIVPAATENFDYWGQGTLVTVSS
VL: EIVLTQSPATLSLSPGERATLSCRASQSVSSYLAWYQQKPGQAPRLLIYDASNRATGIPARFSGSGSGTDFTLTISSLEPEDFAVYYCQQRSNWPITFGQGTRLEIK
Molecule B20 displayed a binding score in test [1] of 63.2. Further, the Kd in test [2] stood at 194 nM.

B21: D013 (antibody, V domains shown)
VH: QVQLVQSGAEVKKPGASVRISCKTSGYIFAYYFIHWFRQAPGQGPEWMGWINPKSGGTNYAQKFQDRVTMTTDSSITTAFMALRSLRSDDTAVYYCTREGVGTISDAGFGYWGQGTPVTVSS
VL: SYVLTQPPSVSVAPGKTATITCGGNNIGSKSVHWYHQKPGQAPVMVVYNDKERPSGIPERFSGSKSGNTATLTITWVEADDEADYYCQAWDRPSGYVFGTGTKVTVL
In turn, B21 showed a binding score in test [1] of 1330. The affinity in test [2], expressed as Kd, was 338 nM.

B22: D051 (antibody, V domains shown)
VH: QVQLQQWGAGLLKPSETLSLTCAVYGGSFSDYYWTWIRQAPGKGLEWIGEINHSGSTNYNPSLKSRVTISVDTSKSQFSLSLTSVTAADTAVYYCARGRRYCNSLSCPYYFYFYMDVWDKGTTVTVSS
VL: DIQMTQSPSSVSASVGDRVTITCRASQGISSWLAWYQQKPGKAPKLLIYAASSLQSGVPSRFSGSGSGTDFTLTISSLQSEDFATYYCQQANSFPRTFGQGTRLEIK
Take B22: in test [1], the binding score is more than 10000. Moreover, the affinity in test [2], expressed as Kd, was 2240 nM.

B23: C2743 (antibody, V domains shown)
VH: QVQLVQSGAEVKKPGASVKVSCKASGYTFTSYGISWVRQAPGQGLEWMGWISAYNGNTNYAQKLQGRVTMTTDTSTSTAYMELRSLRSDDTAVYYCARDFGELATPLDYWGQGTLVTVSS
VL: EIVLTQSPATLSLSPGERATLSCRASQSVSSYLAWYQQKPGQAPRLLIYDASNRATGIPARFSGSGSGTDFTLTISSLEPEDFAVYYCQQRSNSLTFGGGTKVEIK
On to B23, for which the binding score in test [1] was determined as 14.3. Also, the Kd in test [2] came to 18.5 nM.

Values taken from PMC9876794 (2022).
